Consider four molecules from patent US20250171555A1 (VISTERRA, published 2025).

Experiment [1] concerns the target T1, C5aR2 VLP (UniProt Q9P296 1-337). Put plainly: ELISA, C5aR2 VLP immobilized at 30 µg/mL, antibody titrated. On the technique in general: In an ELISA, binding on a coated surface is turned into a signal by an enzyme label.
Experiment [2] has as its target T1, C5aR2 VLP. Put plainly: ELISA, C5aR2 VLP immobilized, as in Example 1.

T1 sequence (Q9P296 whole entry): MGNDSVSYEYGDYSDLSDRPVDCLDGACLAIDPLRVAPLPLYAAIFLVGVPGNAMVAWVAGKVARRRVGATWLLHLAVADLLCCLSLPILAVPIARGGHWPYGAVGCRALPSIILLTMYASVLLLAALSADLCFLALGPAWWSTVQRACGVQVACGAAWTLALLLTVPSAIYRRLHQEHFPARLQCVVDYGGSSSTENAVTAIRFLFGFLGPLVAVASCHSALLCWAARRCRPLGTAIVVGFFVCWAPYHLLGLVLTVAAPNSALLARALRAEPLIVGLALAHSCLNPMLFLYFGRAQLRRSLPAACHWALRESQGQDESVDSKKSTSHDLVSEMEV

B1: c2139 (antibody, human IgG4 S228P, kappa)
heavy: not shown
light: DVQMTQSPSSLSASVGDRVTITCRASQSIVHSNGNTYLHWYQQKPGKAPKFLIYKVSNRFSGVPSRFSGSGSGTDFTLTISSLQPEDFATYYCAQYTLVPLTFGQGTKLEIKRTVAAPSVFIFPPSDEQLKSGTASVVCLLNNFYPREAKVQWKVDNALQSGNSQESVTEQDSKDSTYSLSSTLTLSKADYEKHKVYACEVTHQGLSSPVTKSFNRGEC
notes: also called humanized Site II antibody; monospecific C5aR1 antibody
For B1, the binding result with C5aR2 VLP [1] was “no binding”.

B2: c2137-e1711 (bispecific antibody, human IgG4 S228P, kappa)
heavy: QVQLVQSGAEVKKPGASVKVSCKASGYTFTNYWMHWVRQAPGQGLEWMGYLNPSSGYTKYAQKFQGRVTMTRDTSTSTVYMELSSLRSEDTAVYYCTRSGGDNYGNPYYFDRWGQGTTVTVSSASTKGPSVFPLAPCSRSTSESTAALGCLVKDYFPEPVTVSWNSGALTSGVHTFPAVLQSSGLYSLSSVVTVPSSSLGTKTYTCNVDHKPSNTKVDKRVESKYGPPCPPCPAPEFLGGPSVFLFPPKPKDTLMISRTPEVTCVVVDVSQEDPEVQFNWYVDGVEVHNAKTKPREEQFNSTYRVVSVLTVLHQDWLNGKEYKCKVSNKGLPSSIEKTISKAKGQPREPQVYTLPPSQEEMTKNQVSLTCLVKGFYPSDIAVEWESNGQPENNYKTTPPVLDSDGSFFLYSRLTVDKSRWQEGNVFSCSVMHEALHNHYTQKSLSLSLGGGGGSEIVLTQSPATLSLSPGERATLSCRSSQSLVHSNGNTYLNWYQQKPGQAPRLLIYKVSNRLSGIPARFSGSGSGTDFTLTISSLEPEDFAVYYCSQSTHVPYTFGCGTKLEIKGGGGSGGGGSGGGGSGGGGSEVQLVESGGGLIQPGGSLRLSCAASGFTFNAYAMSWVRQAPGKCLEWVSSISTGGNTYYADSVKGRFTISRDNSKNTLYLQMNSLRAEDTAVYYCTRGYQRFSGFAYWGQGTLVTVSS
light: DVQMTQSPSSLSASVGDRVTITCRASQSIVHSNGNTYLHWYQQKPGKAPKFLIYKVSNRFSGVPSRFSGSGSGTDFTLTISSLQPEDFATYYCAQSTLVPLTFGQGTKLEIKRTVAAPSVFIFPPSDEQLKSGTASVVCLLNNFYPREAKVQWKVDNALQSGNSQESVTEQDSKDSTYSLSSTLTLSKADYEKHKVYACEVTHQGLSSPVTKSFNRGEC
notes: Tetravalent Fab-Fc-linker-scFv; also called humanized biparatopic antibody; biparatopic C5aR1 antibody
With B2, the binding result in the experiment with C5aR2 VLP [1] was “no binding”.

B3: c2137-e1711-Fcmod (bispecific antibody, human IgG4 S228P, kappa)
heavy: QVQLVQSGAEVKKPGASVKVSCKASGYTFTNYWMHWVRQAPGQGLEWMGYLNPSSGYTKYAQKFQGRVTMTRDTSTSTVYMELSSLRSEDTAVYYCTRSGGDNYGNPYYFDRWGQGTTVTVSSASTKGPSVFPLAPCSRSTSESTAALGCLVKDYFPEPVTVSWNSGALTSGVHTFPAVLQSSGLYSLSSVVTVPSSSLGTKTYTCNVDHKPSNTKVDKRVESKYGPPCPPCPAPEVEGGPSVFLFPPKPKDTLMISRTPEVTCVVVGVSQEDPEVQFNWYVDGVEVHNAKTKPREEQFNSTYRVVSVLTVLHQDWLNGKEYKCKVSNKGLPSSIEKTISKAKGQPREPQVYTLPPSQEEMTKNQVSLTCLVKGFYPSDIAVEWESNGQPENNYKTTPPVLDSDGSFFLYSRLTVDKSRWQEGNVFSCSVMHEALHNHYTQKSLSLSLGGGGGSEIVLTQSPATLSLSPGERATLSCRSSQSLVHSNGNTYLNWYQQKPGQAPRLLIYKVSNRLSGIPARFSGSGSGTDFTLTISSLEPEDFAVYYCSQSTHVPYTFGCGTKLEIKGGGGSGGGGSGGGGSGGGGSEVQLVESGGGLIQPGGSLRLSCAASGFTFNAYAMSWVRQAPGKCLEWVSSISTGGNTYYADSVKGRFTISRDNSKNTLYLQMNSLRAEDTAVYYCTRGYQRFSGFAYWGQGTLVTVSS
light: DVQMTQSPSSLSASVGDRVTITCRASQSIVHSNGNTYLHWYQQKPGKAPKFLIYKVSNRFSGVPSRFSGSGSGTDFTLTISSLQPEDFATYYCAQSTLVPLTFGQGTKLEIKRTVAAPSVFIFPPSDEQLKSGTASVVCLLNNFYPREAKVQWKVDNALQSGNSQESVTEQDSKDSTYSLSSTLTLSKADYEKHKVYACEVTHQGLSSPVTKSFNRGEC
notes: Fab-Fc-linker-scFv; also called biparatopic antibody with modified Fc domain
Take B3: the binding result with C5aR2 VLP [2] is listed as “no binding”.

B4: c2139-Fcmod (antibody, human IgG4 S228P, kappa)
heavy: not shown
light: DVQMTQSPSSLSASVGDRVTITCRASQSIVHSNGNTYLHWYQQKPGKAPKFLIYKVSNRFSGVPSRFSGSGSGTDFTLTISSLQPEDFATYYCAQYTLVPLTFGQGTKLEIKRTVAAPSVFIFPPSDEQLKSGTASVVCLLNNFYPREAKVQWKVDNALQSGNSQESVTEQDSKDSTYSLSSTLTLSKADYEKHKVYACEVTHQGLSSPVTKSFNRGEC
notes: also called c2139-Fmod; monospecific antibody with modified Fc domain
As for B4, the binding result with C5aR2 VLP [2] was “no binding”.
